According to paper PMC5931518, “Architecture of the U6 snRNP reveals specific recognition of 3′-end processed U6 snRNA”:

T1: Lsm2-8 Lsm8-delC (Saccharomyces cerevisiae, UniProt P38203;P57743;P40070;P40089;Q06406;P53905;P47093 …)
T1 sequence 1: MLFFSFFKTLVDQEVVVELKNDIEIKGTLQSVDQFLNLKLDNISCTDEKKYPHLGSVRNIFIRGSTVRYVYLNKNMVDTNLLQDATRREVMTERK
T1 sequence 2: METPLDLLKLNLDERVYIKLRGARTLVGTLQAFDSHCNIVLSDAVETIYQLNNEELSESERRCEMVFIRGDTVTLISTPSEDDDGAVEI
T1 sequence 3: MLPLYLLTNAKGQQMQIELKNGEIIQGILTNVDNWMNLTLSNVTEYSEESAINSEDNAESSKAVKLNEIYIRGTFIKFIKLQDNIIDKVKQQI
T1 sequence 4: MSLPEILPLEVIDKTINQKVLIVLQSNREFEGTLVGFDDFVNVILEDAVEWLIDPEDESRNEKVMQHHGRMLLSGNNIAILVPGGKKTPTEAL
T1 sequence 5: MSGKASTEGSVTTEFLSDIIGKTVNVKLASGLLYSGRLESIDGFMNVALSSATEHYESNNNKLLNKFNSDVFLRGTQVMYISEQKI
T1 sequence 6: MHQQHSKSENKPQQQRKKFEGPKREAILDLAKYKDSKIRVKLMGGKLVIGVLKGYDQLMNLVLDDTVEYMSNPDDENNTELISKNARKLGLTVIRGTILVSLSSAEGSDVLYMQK
T1 sequence 7: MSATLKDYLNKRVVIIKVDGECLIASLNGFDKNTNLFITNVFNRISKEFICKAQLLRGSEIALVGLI

T2: Lsm2-8 Lsm3-R21A (Saccharomyces cerevisiae, UniProt P38203;P57743;P40070;P40089;Q06406;P53905;P47093 …, R21A)
T2 sequence 1: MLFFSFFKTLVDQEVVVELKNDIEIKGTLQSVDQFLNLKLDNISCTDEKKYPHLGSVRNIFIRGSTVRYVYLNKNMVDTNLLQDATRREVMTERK
T2 sequence 2: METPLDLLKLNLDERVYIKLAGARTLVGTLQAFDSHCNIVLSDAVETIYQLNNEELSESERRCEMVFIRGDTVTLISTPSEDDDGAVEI
T2 sequence 3: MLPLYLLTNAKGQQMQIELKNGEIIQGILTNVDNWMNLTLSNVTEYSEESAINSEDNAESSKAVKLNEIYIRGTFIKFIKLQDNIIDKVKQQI
T2 sequence 4: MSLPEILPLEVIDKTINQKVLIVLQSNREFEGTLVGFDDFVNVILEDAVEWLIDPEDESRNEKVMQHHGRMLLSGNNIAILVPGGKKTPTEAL
T2 sequence 5: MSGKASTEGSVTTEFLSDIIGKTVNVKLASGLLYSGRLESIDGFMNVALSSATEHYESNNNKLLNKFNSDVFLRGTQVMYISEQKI
T2 sequence 6: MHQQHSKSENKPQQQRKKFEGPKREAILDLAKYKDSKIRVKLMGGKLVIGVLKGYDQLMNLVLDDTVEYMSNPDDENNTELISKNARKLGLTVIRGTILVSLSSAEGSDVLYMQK
T2 sequence 7: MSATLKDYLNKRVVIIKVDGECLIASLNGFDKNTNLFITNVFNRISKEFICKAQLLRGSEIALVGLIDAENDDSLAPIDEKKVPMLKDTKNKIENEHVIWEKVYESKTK

T3: Lsm2-8 construct 2 (WT) (Saccharomyces cerevisiae, UniProt P38203;P57743;P40070;P40089;Q06406;P53905;P47093 …)
T3 sequence 1: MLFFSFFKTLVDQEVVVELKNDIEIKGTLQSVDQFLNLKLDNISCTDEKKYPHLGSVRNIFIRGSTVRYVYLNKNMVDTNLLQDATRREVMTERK
T3 sequence 2: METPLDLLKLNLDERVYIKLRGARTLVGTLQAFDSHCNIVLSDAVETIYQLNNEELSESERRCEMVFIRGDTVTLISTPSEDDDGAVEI
T3 sequence 3: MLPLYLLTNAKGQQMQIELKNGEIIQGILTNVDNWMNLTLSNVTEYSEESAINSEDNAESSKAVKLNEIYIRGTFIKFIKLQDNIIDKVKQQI
T3 sequence 4: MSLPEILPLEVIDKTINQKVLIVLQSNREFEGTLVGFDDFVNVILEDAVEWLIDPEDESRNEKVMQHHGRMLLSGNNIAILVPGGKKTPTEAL
T3 sequence 5: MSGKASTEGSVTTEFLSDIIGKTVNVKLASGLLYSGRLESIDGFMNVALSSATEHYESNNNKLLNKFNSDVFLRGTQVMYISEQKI
T3 sequence 6: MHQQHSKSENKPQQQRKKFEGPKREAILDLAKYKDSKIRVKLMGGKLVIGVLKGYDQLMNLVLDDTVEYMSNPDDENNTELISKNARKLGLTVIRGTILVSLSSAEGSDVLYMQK
T3 sequence 7: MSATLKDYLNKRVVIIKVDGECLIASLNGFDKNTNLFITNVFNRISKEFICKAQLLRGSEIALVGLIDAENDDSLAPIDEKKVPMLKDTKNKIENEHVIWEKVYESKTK

T4: Lsm2-8 Lsm2-K20A (Saccharomyces cerevisiae, UniProt P38203;P57743;P40070;P40089;Q06406;P53905;P47093 …, K20A)
T4 sequence 1: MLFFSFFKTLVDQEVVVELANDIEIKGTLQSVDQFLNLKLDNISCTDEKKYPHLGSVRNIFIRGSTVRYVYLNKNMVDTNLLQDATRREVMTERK
T4 sequence 2: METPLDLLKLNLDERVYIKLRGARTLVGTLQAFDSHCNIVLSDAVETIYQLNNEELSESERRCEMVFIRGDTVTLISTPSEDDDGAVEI
T4 sequence 3: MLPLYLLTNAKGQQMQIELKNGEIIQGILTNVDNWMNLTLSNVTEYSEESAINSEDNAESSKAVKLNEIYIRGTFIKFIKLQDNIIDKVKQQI
T4 sequence 4: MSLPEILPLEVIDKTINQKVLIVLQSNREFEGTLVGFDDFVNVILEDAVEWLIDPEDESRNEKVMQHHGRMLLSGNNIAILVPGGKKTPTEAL
T4 sequence 5: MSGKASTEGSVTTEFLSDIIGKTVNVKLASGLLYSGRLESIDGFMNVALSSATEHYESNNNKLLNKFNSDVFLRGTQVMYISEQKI
T4 sequence 6: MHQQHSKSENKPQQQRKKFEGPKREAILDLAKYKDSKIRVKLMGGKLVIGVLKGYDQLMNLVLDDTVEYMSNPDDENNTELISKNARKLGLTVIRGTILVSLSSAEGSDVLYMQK
T4 sequence 7: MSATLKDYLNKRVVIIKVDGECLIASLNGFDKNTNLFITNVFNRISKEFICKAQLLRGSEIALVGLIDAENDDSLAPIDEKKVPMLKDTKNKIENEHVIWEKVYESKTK

T5: Lsm2-8 Lsm2-K20E (Saccharomyces cerevisiae, UniProt P38203;P57743;P40070;P40089;Q06406;P53905;P47093 …, K20E)
T5 sequence 1: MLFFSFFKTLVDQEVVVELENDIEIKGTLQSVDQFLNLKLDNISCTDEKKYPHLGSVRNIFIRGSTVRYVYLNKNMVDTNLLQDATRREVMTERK
T5 sequence 2: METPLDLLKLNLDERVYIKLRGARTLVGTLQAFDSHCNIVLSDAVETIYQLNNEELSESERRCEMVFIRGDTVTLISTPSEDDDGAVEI
T5 sequence 3: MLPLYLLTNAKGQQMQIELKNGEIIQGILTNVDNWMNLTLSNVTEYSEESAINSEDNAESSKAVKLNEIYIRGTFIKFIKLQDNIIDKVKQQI
T5 sequence 4: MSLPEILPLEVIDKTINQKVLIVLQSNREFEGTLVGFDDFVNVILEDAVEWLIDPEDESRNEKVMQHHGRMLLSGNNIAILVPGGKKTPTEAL
T5 sequence 5: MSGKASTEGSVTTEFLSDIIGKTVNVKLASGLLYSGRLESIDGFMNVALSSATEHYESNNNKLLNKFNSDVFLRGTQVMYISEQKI
T5 sequence 6: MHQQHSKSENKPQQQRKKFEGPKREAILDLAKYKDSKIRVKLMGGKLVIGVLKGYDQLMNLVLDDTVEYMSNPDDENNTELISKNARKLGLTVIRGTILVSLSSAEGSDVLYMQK
T5 sequence 7: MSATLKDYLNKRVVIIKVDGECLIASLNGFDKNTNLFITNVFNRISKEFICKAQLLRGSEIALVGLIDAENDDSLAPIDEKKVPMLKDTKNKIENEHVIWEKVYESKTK

T6: Lsm2-8 Lsm3-R21E (Saccharomyces cerevisiae, UniProt P38203;P57743;P40070;P40089;Q06406;P53905;P47093 …, R21E)
T6 sequence 1: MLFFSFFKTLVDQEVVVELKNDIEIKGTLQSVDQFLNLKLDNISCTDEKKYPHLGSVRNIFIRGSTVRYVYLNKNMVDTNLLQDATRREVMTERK
T6 sequence 2: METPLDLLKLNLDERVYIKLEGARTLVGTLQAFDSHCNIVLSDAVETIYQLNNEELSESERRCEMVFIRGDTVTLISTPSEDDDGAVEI
T6 sequence 3: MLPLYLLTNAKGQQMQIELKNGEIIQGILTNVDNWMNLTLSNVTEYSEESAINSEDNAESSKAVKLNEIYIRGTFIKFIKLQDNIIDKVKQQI
T6 sequence 4: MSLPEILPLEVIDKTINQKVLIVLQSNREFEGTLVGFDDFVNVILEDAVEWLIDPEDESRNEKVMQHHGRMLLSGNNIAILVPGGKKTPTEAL
T6 sequence 5: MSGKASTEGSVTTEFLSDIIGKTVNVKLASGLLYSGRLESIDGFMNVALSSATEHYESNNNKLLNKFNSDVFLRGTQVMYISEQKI
T6 sequence 6: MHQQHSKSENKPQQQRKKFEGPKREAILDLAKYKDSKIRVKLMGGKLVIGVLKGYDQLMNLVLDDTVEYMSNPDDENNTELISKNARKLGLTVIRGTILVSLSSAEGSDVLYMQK
T6 sequence 7: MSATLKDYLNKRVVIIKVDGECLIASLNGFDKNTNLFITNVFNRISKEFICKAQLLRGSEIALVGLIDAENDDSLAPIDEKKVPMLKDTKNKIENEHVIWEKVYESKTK


Key:
Test in all cases: fluorescence polarization; FP: 50 mM KCl or as listed 100 mM KCl in both 2x buffers, HEPES (10 mM acid + 10 mM Na salt), 10% glycerol, 1 mM TCEP, tRNA, heparin, BSA, 0.3 nM FAM-RNA; EMSA: 100 mM KCl, 20% sucrose, 20 mM bis-tris/10 mM HCl pH ~6.5, 1 mM EDTA, 1 mM TCEP, 0.01% Triton X-100, tRNA, heparin, BSA, room temperature, gel at 4 C
Lsm2-8 Lsm8-delC = molecular target: T1, Lsm2-8 Lsm8-delC; details: protein: recombinant; tags: as P1; copies: 1;1;1;1;1;1;1; label: 5'-FAM; single strand
Lsm2-8 Lsm3-R21A = molecular target: T2, Lsm2-8 Lsm3-R21A; details: protein: recombinant; tags: as P1; copies: 1;1;1;1;1;1;1; label: 5'-FAM; single strand
Lsm2-8 construct 2 (WT) = molecular target: T3, Lsm2-8 construct 2 (WT); details: protein: recombinant; tags: Lsm8 C-terminal His6 (non-cleavable); Lsm3 C-terminal StrepII (non-cleavable); MBP on Lsm6 (TEV-labile); copies: 1;1;1;1;1;1;1; label: 5'-FAM; single strand
Lsm2-8 Lsm2-K20A = molecular target: T4, Lsm2-8 Lsm2-K20A; details: protein: recombinant; tags: as P1; copies: 1;1;1;1;1;1;1; label: 5'-FAM; single strand
Lsm2-8 Lsm2-K20E = molecular target: T5, Lsm2-8 Lsm2-K20E; details: protein: recombinant; tags: as P1; copies: 1;1;1;1;1;1;1; label: 5'-FAM; single strand
Lsm2-8 Lsm3-R21E = molecular target: T6, Lsm2-8 Lsm3-R21E; details: protein: recombinant; tags: as P1; copies: 1;1;1;1;1;1;1; label: 5'-FAM; single strand

Binder | Kd (Lsm2-8 Lsm8-delC) | Kd (Lsm2-8 Lsm3-R21A) | Kd (Lsm2-8 construct 2 (WT)) | Kd (Lsm2-8 Lsm2-K20A) | Kd (Lsm2-8 Lsm2-K20E) | Kd (Lsm2-8 Lsm3-R21E)
UUUCGUUUUU (ssRNA, 3' phosphate) [U6 104-113 3' phosphate] | 502 ± 47 nM | 123 ± 12 nM | 6.13 ± 0.87 nM | 841 ± 89 nM | 2320 ± 450 nM | 1150 ± 190 nM
UUUCGUUUUU (ssRNA, none (3' phosphate removed with CIP)) [U6 104-113 2',3'-cis diol] | 277 ± 32 nM | 40.8 ± 3.3 nM | 37.4 ± 4.5 nM | 522 ± 48 nM | 1870 ± 370 nM | 195 ± 27 nM
